Biological target: SNAP-25 (rat) (UniProt P60881)

WGA-LHN/A conjugate (enzyme)
IC50, inhibition of glycine release from eSC neurons (3 days) (microgrammes/ml): 0.06
IC50, inhibition of substance P release from eDRG neurons (3 days) (microgrammes/ml): 0.34
